Measured values as given in paper doi:10.1101/2023.03.28.534377.

What was measured:
Assay in all cases: pull-down
[1] = molecular target: His-ImuB-L378A (M. smegmatis) (M. smegmatis)
[2] = molecular target: His-ImuB-L378A+V383A (M. smegmatis) (M. smegmatis)
[3] = molecular target: His-ImuB-V383A (M. smegmatis) (M. smegmatis)

fold less pulled down than by His-ImuB [1]: 1.5 fold
fold less pulled down than by His-ImuB [2]: 3 fold
fold less pulled down than by His-ImuB [3]: 1.5 fold
Substance: Strep-VFP-tagged ImuA’ (M. smegmatis) (natural protein)
